Laboratory results: paper PMC5943153

What was measured:
Test in all cases: two-hybrid
[1] = biological target: T25-HP0221 (NifU) (Helicobacter pylori strain 26695) (UniProt O25009)
[2] = biological target: HP0221-T25 (NifU) (Helicobacter pylori strain 26695) (UniProt O25009)
T25-Zip = biological target: T25-Zip
[3] = biological target: T25-HP0220 (NifS) (Helicobacter pylori strain 26695) (UniProt O25008)
[4] = biological target: T25-HP1492 (Nfu) (Helicobacter pylori strain 26695) (UniProt O26025)

T18-Zip (domain or fragment), sequence (P03069 whole entry, the tested form may be a part): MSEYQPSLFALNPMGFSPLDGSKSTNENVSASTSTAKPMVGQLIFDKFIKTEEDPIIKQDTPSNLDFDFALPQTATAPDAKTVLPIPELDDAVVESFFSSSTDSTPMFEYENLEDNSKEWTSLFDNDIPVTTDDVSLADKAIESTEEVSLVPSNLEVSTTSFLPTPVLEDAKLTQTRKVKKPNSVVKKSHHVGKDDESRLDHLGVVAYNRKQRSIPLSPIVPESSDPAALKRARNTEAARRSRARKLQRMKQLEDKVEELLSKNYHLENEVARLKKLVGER
T25-Zip, sequence (P03069 whole entry): as the sequence (P03069 whole entry, the tested form may be a part) above

growth OD595 in M63-maltose [1] [OD595]	growth OD595 in M63-maltose [2] [OD595]	Substance	other results
0.37	–	T18-HP0221 (from UniProt O25009 2-326) (natural protein)	–
–	0.13	T18-HP0934 (from UniProt O25588 2-251) (natural protein)	–
–	0.29	T18-HP0468 (from UniProt O25214 2-495) (natural protein)	–
–	0.26	T18-HP1406 (from UniProt O25956 2-282) (natural protein)	–
0.11	–	T18-HP0400 (from UniProt P65185 2-274) (natural protein)	–
–	–	T18-Zip (domain or fragment)	growth OD595 in M63-maltose (T25-Zip): 0.23 OD595
–	0.44	T18-HP0142 (from UniProt O24954 2-328) (natural protein)	–
0.13	0.29	T18-HP1492 (natural protein)	growth OD595 in M63-maltose [3]: 0.32 OD595; growth OD595 in M63-maltose [4]: 0.39 OD595
0.32	–	T18-HP1266 (from UniProt O25856 2-844) (natural protein)	–
–	0.21	T18-HP0768 (from UniProt P56414 2-321) (natural protein)	–
–	0.25	T18-HP0285 (from UniProt P56130 2-418) (natural protein)	–
–	0.36	T18-HP0117 (from UniProt P56080 2-308) (natural protein)	–
